The text below walks through data of publication PMC4226653 (Journal of molecular biology, 2012).

Experiment [1] deals with T1, human Nup88 N-terminal domain (residues 1–493) (human, UniProt Q99567 1-493).
T1 sequence (looked up): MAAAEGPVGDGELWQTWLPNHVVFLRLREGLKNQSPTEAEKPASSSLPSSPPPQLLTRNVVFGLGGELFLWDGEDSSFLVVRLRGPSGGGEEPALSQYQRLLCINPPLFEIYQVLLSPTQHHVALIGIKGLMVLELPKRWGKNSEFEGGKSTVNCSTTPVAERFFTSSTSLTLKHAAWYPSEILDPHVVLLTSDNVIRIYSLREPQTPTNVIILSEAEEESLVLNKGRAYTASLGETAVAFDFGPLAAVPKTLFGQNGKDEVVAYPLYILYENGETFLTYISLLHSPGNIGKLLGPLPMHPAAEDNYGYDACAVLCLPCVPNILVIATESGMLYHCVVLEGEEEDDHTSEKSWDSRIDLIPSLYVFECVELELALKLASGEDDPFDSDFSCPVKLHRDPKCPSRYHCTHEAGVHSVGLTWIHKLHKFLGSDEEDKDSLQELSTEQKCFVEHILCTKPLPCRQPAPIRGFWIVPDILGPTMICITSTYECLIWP
Nature of the experiment: SEC-MALS.

Experiment [2] concerns the target yNup82^NTD•yNup159^T pair (S. cerevisiae, UniProt P40368 1-452; P40477 1425-1460). Nature of the experiment: SEC-MALS. (SEC sorts molecules by how far they enter the pores of the column.)

Chain of yNup82^NTD•yNup159^T pair (P40368 1-452, chain 1 of 2): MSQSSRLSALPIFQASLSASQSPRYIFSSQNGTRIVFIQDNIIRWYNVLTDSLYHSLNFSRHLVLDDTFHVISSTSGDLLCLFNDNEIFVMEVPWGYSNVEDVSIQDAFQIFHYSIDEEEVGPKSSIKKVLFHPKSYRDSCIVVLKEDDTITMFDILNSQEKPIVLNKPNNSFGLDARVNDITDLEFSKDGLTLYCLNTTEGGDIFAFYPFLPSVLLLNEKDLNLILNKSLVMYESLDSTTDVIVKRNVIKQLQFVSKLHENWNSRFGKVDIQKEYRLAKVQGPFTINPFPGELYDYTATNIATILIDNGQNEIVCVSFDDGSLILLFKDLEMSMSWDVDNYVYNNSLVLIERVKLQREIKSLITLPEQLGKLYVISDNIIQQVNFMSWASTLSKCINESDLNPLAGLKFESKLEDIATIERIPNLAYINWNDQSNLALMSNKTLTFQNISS
Chain of yNup82^NTD•yNup159^T pair (P40477 1425-1460, chain 2 of 2): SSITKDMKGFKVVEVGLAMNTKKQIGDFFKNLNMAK

B1: mouse Nup98 autoproteolytic domain (residues 732–880) (domain or fragment, UniProt Q6PFD9 732-880, looked up)
chain: AGIVLTKVGYYTIPSMDDLAKITNEKGECIVSDFTIGRKGYGSIYFEGDVNLTNLNLDDIVHIRRKEVIVYVDDNQKPPVGEGLNRKAEVTLDGVWPTDKTSRCLIKSPDRLADINYEGRLEAVSRKQGAQFKEYRPETGSWVFKVSHF
In the case of B1, the “stoichiometry N” value in experiment [1] and in experiment [2] was 1 in each case.

The stoichiometry N is the number of molecules, sites or subunits per partner or assembly.
